Measurements taken from publication PMC5427921, “PRL3 phosphatase active site is required for binding the putative magnesium transporter CNNM3” (Scientific Reports, 2017).

Target: T1, Human phosphatase PRL3, amino acids 1–169 (wild type) (human, UniProt O75365 1-169)
T1 construct: N-terminal extension Gly-Ser-His left after thrombin cleavage of the His tag; phosphatase of regenerating liver 3 (PRL3), human, amino acids 1-169; also called PRL3-wt; wild-type PRL3; not shown: His6, N-terminal, cleaved
T1 sequence (O75365 other isoform, or with tags, fused parts or gaps): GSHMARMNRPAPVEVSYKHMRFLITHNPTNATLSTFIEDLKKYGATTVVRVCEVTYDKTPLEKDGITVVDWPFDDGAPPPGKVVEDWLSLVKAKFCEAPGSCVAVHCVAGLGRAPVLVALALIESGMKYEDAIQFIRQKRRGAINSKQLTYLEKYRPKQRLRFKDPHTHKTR
Test: ITC; syringe 160 μM PRL2 or PRL3, cell 16 μM CNNM3 CBS-pair domain as a GST fusion; 22 °C; 30 injections of 10 μl; fitted to a single set of identical sites
Details: both partners purified

B1: CNNM3 CBS-pair domain as a GST fusion (domain or fragment, human)
chain: LRCRTVEDVLTPLEDCFMLDASTVLDFGVLASIMQSGHTRIPVYEEERSNIVDMLYLKDLAFVDPEDCTPLSTITRFYNHPLHFVFNDTKLDAVLEEFKRGKSHLAIVQKVNNEGEGDPFYEVLGLVTLEDVIEEIIRSEILDE
notes: CBS-pair domain of human CNNM3; also called CBS-pair (Bateman) domain of CNNM3
Question: B1 was tested. Which Kd did it give?
Answer: The Kd was 11 nM.
